Consider 1 substance from article PMC10876603.

The target of the assay is microtubules (polymerised α/β-tubulin) (UniProt Q6B856).
Chain of UniProt Q6B856 (Q6B856 whole entry, looked up): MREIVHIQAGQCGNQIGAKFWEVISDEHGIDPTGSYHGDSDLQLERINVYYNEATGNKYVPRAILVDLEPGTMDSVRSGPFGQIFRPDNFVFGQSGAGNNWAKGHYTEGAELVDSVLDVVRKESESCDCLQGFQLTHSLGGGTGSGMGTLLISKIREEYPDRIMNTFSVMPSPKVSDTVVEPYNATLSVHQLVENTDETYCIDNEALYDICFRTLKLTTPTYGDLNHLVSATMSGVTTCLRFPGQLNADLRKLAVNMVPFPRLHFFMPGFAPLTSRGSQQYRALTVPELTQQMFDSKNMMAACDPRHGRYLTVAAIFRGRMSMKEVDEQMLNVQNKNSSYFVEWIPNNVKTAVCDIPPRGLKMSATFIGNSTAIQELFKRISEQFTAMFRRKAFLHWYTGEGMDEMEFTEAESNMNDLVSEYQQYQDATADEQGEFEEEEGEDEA

“human CEN subcomplex with wild-type Borealin (CEN-Borealin^wt) (from UniProt Q9NQS7 1-58; O15392 1-142; Q53HL2 1-280)” came in with a width of bundles of GMpCpp-stabilized rhodamine-labeled MTs (100 nM) after 2 min with 4 μM CEN, TIRF microscopy (single GMpCpp MTs measure 0.34 μm) of 0.46 μm.
